Columns and labels:
[1] = system: T1, 18-mer peptide PQLPYPQPQLPYPQPQPF
T1 sequence: PQLPYPQPQLPYPQPQPF

[2] = system: T2, 33-mer peptide LQLQPFPQPQLPYPQPQLPYPQPQLPYPQPQPF from α2-gliadin
T2 sequence: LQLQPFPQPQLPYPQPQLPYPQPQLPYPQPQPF

Substance	Km (protease activity against 18-mer peptide) [1]	Vmax (protease activity against 18-mer peptide) (mg 18-mer peptide/ml) [1]	in vitro degradation of the peptide (protease activity) [2]
elongation factor G from Streptococcus thermophilus (strain P02638 F9 = DN_001343, CNCM I-2776), purified from culture supernatant	0.794 mg 18-mer peptide/m1	1.5	The protease able to degrade in vitro the 33-mer as well as the 18-mer peptide
elongation factor Tu from Lactobacillus casei (strain P02503 A1 = DN_114001, CNCM I-1518), purified from culture supernatant	0.643 mg 18-mer peptide/ml	1.27	The protease able to degrade in vitro the 33-mer as well as the 18-mer peptide

From US20170145379
